Data from US20210301021A1 (NANJING GENSCRIPT BIOTECH, published 2021).
Residue numbers refer to the chain shown, from its start.

T1: CTLA4/His (human, UniProt P16410 36-161)
T1 construct: not shown: His tag
T1 sequence (looked up): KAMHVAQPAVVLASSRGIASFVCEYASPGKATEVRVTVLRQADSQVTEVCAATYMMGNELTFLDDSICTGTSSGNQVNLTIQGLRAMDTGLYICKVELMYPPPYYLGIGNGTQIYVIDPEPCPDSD

T2: CTLA-4 on the functional cells of the Promega anti-CTLA-4 blocking assay kit (UniProt P16410 36-223, limits assumed)
T2 sequence (looked up): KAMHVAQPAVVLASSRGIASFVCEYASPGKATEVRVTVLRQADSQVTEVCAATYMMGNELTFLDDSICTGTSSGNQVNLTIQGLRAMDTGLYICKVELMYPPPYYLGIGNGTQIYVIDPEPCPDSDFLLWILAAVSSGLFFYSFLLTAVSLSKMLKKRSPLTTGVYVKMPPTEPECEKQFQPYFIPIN

T3: human CTLA4-Fc recombinant protein (human, UniProt P16410 36-161)
T3 construct: not shown: Fc part
T3 sequence (looked up): T1 sequence (looked up)

B1: AH01674 humanized anti-human CTLA4 monoclonal antibody (human IgG1/kappa) (antibody, V domains shown)
VH: QVQLVQSGAEVKKPGASVKVSCKASGYTFTSYWINWVRQAPGQGLEWMGRIAPGSGTTYYNEMFTGRVTMTRDTSTSTAYMELSSLRSEDTAVYYCARGDYFDYWGQGTMVTVSS
VL: DIQLTQSPSFLSASVGDRVTITCSASKSVSYIHWYQQKPGKAPKLLIYDTSTLASGVPPRFSGSGSGPEFTLTISSLQPEDFATYYCQQRTTYPLTFGQGTKLEIK
notes: also called AH1674
B2: AH01674 (prokaryotic expression antibody product, CBM library) (Fab, V domains shown)
VH: B1 VH
VL: B1 VL
notes: Prokaryotic expression product from Phage-Fab / FASEBA-Fab plasmids
B3: AH01674 AAPH (AH01674 after the oxidation pressure test) (antibody, V domains shown)
VH: B1 VH
VL: B1 VL
modifications: Met 63 oxidised in 75.616% of the sample (AAPH, 40 C, 24 h)
notes: Human IgG1/kappa, treated with AAPH; also called AH01674 AAPH-24 h
B4: AH01696 humanized anti-human CTLA4 monoclonal antibody (human IgG1/kappa) (antibody, V domains shown)
VH: VQLVQSGAEVVKPGASVKVSCKASGYTFTSYWINWIRQAPGQGLEWIGRIAPGSGTTYYNEMFTGRVTLTRDTSTSTAYMELSSLRSEDTAVYYCARGDYFDYWDQGTMVTVSS
VL: B1 VL with Y35F, P59S, P68T, F70Y
B5: AH01696 (prokaryotic expression antibody product, 5BM library) (Fab, V domains shown)
VH: B4 VH
VL: B1 VL with Y35F, P59S, P68T, F70Y
notes: as for B2
B6: AH01695 humanized anti-human CTLA4 monoclonal antibody (human IgG1/kappa) (antibody, V domains shown)
VH: B1 VH with M70L, M81I, Y95F, R98I
VL: B1 VL with P59S, P68T
notes: also called AH1695
B7: AH01695 (prokaryotic expression antibody product, 5BM library) (Fab, V domains shown)
VH: B1 VH with M70L, M81I, Y95F, R98I
VL: B1 VL with P59S, P68T
notes: as for B2
B8: AH01672 humanized anti-human CTLA4 monoclonal antibody (human IgG1/kappa) (antibody, V domains shown)
VH: B1 VH with R38K, G106D
VL: B1 VL with T71S, Q99G
notes: also called AH1672
B9: AH01686 humanized anti-human CTLA4 monoclonal antibody (human IgG1/kappa) (antibody, V domains shown)
VH: B1 VH with K12V, V37I, R38K, M48I, M70L, M81I, Y95F
VL: B1 VL with P59S, P68T
B10: AH01653 (prokaryotic expression antibody product, CBM library) (Fab, V domains shown)
VH: B1 VH with Q3H, R38K, G106D
VL: B1 VL with P59S, F70Y, Q99G
B11: AH01704 humanized anti-human CTLA4 monoclonal antibody (human IgG1/kappa) (antibody, V domains shown)
VH: B1 VH with K12V, R38K, M70L, Y95F
VL: B1 VL with P59S, P68T, F70Y
B12: AH01672 (prokaryotic expression antibody product, CBM library) (Fab, V domains shown)
VH: B1 VH with R38K, G106D
VL: B1 VL with T71S, Q99G
notes: as for B2
B13: AH01679 (prokaryotic expression antibody product, 5BM library) (Fab, V domains shown)
VH: B1 VH with K12V, V20L, M48I, A79V
VL: B1 VL with P59S, P68T
notes: as for B2
B14: AH01679 humanized anti-human CTLA4 monoclonal antibody (human IgG1/kappa) (antibody, V domains shown)
VH: B1 VH with K12V, V20L, M48I, A79V
VL: B1 VL with P59S, P68T
notes: also called AH1679
B15: AH01704 (prokaryotic expression antibody product, 5BM library) (Fab, V domains shown)
VH: B1 VH with K12V, R38K, M70L, Y95F
VL: B1 VL with P59S, P68T, F70Y
notes: as for B2
B16: AH01686 (prokaryotic expression antibody product, 5BM library) (Fab, V domains shown)
VH: B1 VH with K12V, V37I, R38K, M48I, M70L, M81I, Y95F
VL: B1 VL with P59S, P68T
notes: as for B2
B17: AH01695 AAPH (AH01695 after the oxidation pressure test) (antibody, V domains shown)
VH: B1 VH with M70L, M81I, Y95F, R98I
VL: B1 VL with P59S, P68T
modifications: Met 63 oxidised in 70.898% of the sample; Met 250 (constant region of the heavy chain) oxidised in 26.143% (AAPH, 40 C, 24 h)
notes: Human IgG1/kappa, treated with AAPH; also called AH01695 AAPH-24 h
B18: Chimeric antibody (antibody, V domains shown)
VH: QVHLQQSGDVLVKPGASVNLSCKASGYTFTSYWINWIKQRPGQGLEWIGRIAPGSGTTYYNEMFTGKATLTVVTSSTTAYIQLSSLSFEDSAVYFCARGDYFDYWDQGTTLTVSS
VL: QIVLTQSPAIMSASPGGKVTITCSASKSVSYIHWFQQKPGTSPKLLIYDTSTLASGVPPRFSGSGSGPSYSLTISRMEAEDAATYYCQQRTTYPLTFGGGTKLEVR
notes: also called Chimeric IgG
B19: Chimeric antibody AAPH (chimeric antibody after the oxidation pressure test) (antibody, V domains shown)
VH: B18 VH
VL: B18 VL
modifications: Met 63 oxidised in 62.144% of the sample (AAPH, 40 C, 24 h)
notes: Same protein as the chimeric antibody, treated with AAPH; also called Chimeric antibody AAPH-24 h

Assays:
CTLA4/His [1] = target: T1, CTLA4/His; assay: SPR, Biacore 8K, antibody captured on the chip, antigen as analyte, 1:1 binding model
CTLA4/His [2] = target: T1, CTLA4/His; assay: SPR (Biacore), untreated control of the oxidation pressure test, analyte CTLA4/His
[3] = target: T2, CTLA-4 on the functional cells of the …; assay: cell-based or functional assay
[4] = target: T3, human CTLA4-Fc recombinant protein; assay: kinetics of the prokaryotic expression product, analyte CTLA4/Fc, 1:1 binding model
CTLA4/His [5] = target: T1, CTLA4/His; assay: SPR (Biacore), after AAPH oxidation, analyte CTLA4/His
CTLA4/His [6] = target: T1, CTLA4/His; assay: SPR, Biacore 8K, antibody captured on the chip, antigen as analyte, 1:1 binding model; Table 4, analyte CTLA4/His; Rmax 38.2, Chi^2 5.48E-02
[7] = target: T3, human CTLA4-Fc recombinant protein; assay: kinetics of the prokaryotic expression product, analyte CTLA4/Fc, 1:1 binding model; prokaryotic expression product, analyte CTLA4/Fc (Table 2)
CTLA4/His [8] = target: T1, CTLA4/His; assay: SPR, Biacore 8K, antibody captured on the chip, antigen as analyte, 1:1 binding model; chimeric antibody, analyte CTLA4/His (Table 4)

Binder | Kd (CTLA4/His [1]) | koff (CTLA4/His [1]) | kon (CTLA4/His [1]) | Kd [4] | other results
B1 | ≤ 14.2 pM | ≤ 1e-05 s⁻¹ | 705000 M⁻¹ s⁻¹ | – | Kd (CTLA4/His [2]): 39.5 pM; koff (CTLA4/His [2]): 2.98e-05 s⁻¹; kon (CTLA4/His [2]): 753000 M⁻¹ s⁻¹; EC50 (µg/ml), luciferase reporter, Promega anti-CTLA-4 blocking assay (CD80/CD86 aAPC/Raji cells with functional cells expressing CTLA-4) [3]: 1.11 µg/mL
B2 | – | – | – | 15.4 pM | –
B3 | – | – | – | – | Kd (CTLA4/His [5]): 30.5 pM; koff (CTLA4/His [5]): 2.19e-05 s⁻¹; kon (CTLA4/His [5]): 719000 M⁻¹ s⁻¹
B4 | 42.9 pM | 2.77e-05 s⁻¹ | 646000 M⁻¹ s⁻¹ | – | –
B5 | – | – | – | 0.00373 pM | –
B6 | ≤ 15.3 pM | ≤ 1e-05 s⁻¹ | 655000 M⁻¹ s⁻¹ | – | Kd (CTLA4/His [2]): 59.4 pM; koff (CTLA4/His [2]): 4.55e-05 s⁻¹; kon (CTLA4/His [2]): 767000 M⁻¹ s⁻¹; EC50 (µg/ml), luciferase reporter, Promega anti-CTLA-4 blocking assay (CD80/CD86 aAPC/Raji cells with functional cells expressing CTLA-4) [3]: 5.46 µg/mL
B7 | – | – | – | 0.0106 pM | –
B8 | ≤ 14.5 pM | ≤ 1e-05 s⁻¹ | – | – | kon (CTLA4/His [6]): 690000 M⁻¹ s⁻¹; EC50 (µg/ml), luciferase reporter, Promega anti-CTLA-4 blocking assay (CD80/CD86 aAPC/Raji cells with functional cells expressing CTLA-4) [3]: 7.31 µg/mL
B9 | 38.8 pM | 3.18e-05 s⁻¹ | 820000 M⁻¹ s⁻¹ | – | –
B10 | – | – | – | 14.9 pM | –
B11 | 14.4 pM | 1.12e-05 s⁻¹ | 780000 M⁻¹ s⁻¹ | – | –
B12 | – | – | – | 14.5 pM | –
B13 | – | – | – | 0.0431 pM | koff [7]: < 1e-05 s⁻¹
B14 | ≤ 13.4 pM | ≤ 1e-05 s⁻¹ | 748000 M⁻¹ s⁻¹ | – | EC50 (µg/ml), luciferase reporter, Promega anti-CTLA-4 blocking assay (CD80/CD86 aAPC/Raji cells with functional cells expressing CTLA-4) [3]: 17.1 µg/mL
B15 | – | – | – | 0.019 pM | –
B16 | – | – | – | 0.0433 pM | –
B17 | – | – | – | – | Kd (CTLA4/His [5]): 131 pM; koff (CTLA4/His [5]): 8.75e-05 s⁻¹; kon (CTLA4/His [5]): 670000 M⁻¹ s⁻¹
B18 | ≤ 23 pM | – | 434000 M⁻¹ s⁻¹ | – | koff (CTLA4/His [8]): ≤ 1e-05 s⁻¹; Kd (CTLA4/His [2]): 21.9 pM; koff (CTLA4/His [2]): 8.16e-06 s⁻¹; kon (CTLA4/His [2]): 372000 M⁻¹ s⁻¹; EC50 (µg/ml), luciferase reporter, Promega anti-CTLA-4 blocking assay (CD80/CD86 aAPC/Raji cells with functional cells expressing CTLA-4) [3]: 3.96 µg/mL
B19 | – | – | – | – | Kd (CTLA4/His [5]): 48.7 pM; koff (CTLA4/His [5]): 2.78e-05 s⁻¹; kon (CTLA4/His [5]): 570000 M⁻¹ s⁻¹
